The source of these data is patent publication US20240294635A1 (CHIA TAI TIANQING PHARMACEUTICAL GROUP, published 2024).

Changes are numbered by the printed parent chain.

The labels stand for the following.
B1: hz16E5-1.2 (antibody, human IgG4 S228P, kappa)
heavy: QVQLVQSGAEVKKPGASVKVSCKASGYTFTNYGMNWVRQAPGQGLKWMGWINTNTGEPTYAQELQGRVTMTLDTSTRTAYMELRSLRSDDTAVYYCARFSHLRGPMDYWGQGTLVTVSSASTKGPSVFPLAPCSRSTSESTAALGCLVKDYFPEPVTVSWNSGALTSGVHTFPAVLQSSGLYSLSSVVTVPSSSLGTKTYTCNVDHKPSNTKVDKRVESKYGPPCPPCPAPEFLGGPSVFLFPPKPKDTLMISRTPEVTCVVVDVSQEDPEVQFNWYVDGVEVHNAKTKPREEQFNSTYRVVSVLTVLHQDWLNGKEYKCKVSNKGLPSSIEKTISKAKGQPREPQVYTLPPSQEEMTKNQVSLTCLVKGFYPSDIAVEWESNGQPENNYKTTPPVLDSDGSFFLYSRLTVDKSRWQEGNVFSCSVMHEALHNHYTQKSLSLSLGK
light: DIQMTQSPSSLSASVGDRVTITCRSSQSLVHSNGYTYLHWYQQKPGKAPKLLIYKVSNRFSGVPSRFSGSGSGTDFTLTISSLQPEDFATYYCSQSTHVPPTFGQGTKLEIKRTVAAPSVFIFPPSDEQLKSGTASVVCLLNNFYPREAKVQWKVDNALQSGNSQESVTEQDSKDSTYSLSSTLTLSKADYEKHKVYACEVTHQGLSSPVTKSFNRGEC
notes: humanized 16E5, full-length heavy and light chains
B2: hz16E5-3.2 (antibody, human IgG4 S228P, kappa)
heavy: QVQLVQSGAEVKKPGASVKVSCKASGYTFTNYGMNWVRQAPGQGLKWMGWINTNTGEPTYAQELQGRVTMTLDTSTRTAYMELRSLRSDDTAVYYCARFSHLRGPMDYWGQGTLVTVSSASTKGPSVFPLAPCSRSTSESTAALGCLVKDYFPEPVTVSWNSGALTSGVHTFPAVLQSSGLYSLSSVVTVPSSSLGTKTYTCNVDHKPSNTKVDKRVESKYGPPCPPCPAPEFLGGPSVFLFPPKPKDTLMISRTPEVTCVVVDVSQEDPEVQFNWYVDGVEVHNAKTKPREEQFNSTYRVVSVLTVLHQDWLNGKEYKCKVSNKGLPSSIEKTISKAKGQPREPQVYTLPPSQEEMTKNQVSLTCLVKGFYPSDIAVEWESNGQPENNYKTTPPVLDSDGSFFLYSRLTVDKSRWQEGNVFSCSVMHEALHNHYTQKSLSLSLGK
light: B1 light with I2A
notes: as for B1
B3: hz3F10-1.1 (antibody, human IgG4 S228P, kappa, V domains shown)
VH: QVQLVQSGAEVKKPGSSVKVSCKASGYTFSRYWIEWVRQAPGQGLEWMGEFIPGSDTTNYAQKFQGRVTITADISTSTAYMELSSLRSEDTAVYYCARGGLRRMDYWGQGTLVTVSS
VL: DIQMTQSPSSLSASVGDRVTITCRASSSVSSTYLHWYQQKPGKAPKLLIYTTSTLASGVPSRFSGSGSGTDFTLTISSLQPEDFATYYCQQFSDSTWTFGQGTKLEIKR
notes: humanized 3F10, full-length heavy and light chains
B4: hz3F10-2.1 (antibody, human IgG4 S228P, kappa, V domains shown)
VH: B3 VH
VL: B3 VL with D94E
notes: as for B3
B5: hz3F10-5.1 (antibody, human IgG4 S228P, kappa, V domains shown)
VH: B3 VH
VL: B3 VL with L48W, D71S, F72Y
notes: as for B3
B6: hz3F10-5.2 (antibody, human IgG4 S228P, kappa, V domains shown)
VH: B3 VH with D73E, S77N
VL: B3 VL with L48W, D71S, F72Y
notes: as for B3
B7: hz3F10-2.2 (antibody, human IgG4 S228P, kappa, V domains shown)
VH: B3 VH with D73E, S77N
VL: B3 VL with D94E
notes: as for B3
B8: hz3F10-1.2 (antibody, human IgG4 S228P, kappa, V domains shown)
VH: B3 VH with D73E, S77N
VL: B3 VL
notes: as for B3
B9: hz3F10-6.2 (antibody, human IgG4 S228P, kappa, V domains shown)
VH: B3 VH with D73E, S77N
VL: B3 VL with L48W, D71S, F72Y, D94E
notes: as for B3
B10: hz3F10-6.1 (antibody, human IgG4 S228P, kappa, V domains shown)
VH: B3 VH
VL: B3 VL with L48W, D71S, F72Y, D94E
notes: as for B3
B11: hz14A9-2.3 (antibody, human IgG4 S228P, kappa, V domains shown)
VH: QVQLVQSGAEVKKPGASVKVSCKVSGFNIEDDYIEWVRQAPGQGLEWMGRIDPANDKTKYAQKFQGRVTMTGDTSTNTVYMELSSLRSEDTAVYYCARPGLRRYYSMDYWGQGTLVTVSS
VL: DIQMTQSPSSLSASVGDRVTITCKASENVVSYVSWYQQKPGKAPKLLIYGASNRYTGVPSRFIGSGSSTDFTLTISSLQPEDFATYYCGQSYSYPLTFGQGTKLEIKR
notes: humanized 14A9, full-length heavy and light chains
B12: hz14A9-2.4 (antibody, human IgG4 S228P, kappa, V domains shown)
VH: B11 VH with A97T
VL: B11 VL
notes: as for B11

The target of one test is T1, CD47 on the red cell surface (Homo sapiens (Human), UniProt Q08722 19-323). As to the kind of experiment: cell-based or functional assay.
For the molecule B1, the “red cell agglutination, lowest concentration causing it” value amounted to 3.3 µg/mL.
As for B2, the “red cell agglutination, lowest concentration causing it” value turned out to be 3.3 µg/mL.

The next test addresses CD47 on HL60 cells (UniProt Q08722 19-323, limits assumed). As to the kind of experiment: cell-based or functional assay.
For the molecule B3, the “rate of phagocytosis, antibody 1 µg/mL” value is 41.2% and the “rate of phagocytosis, antibody 10 µg/mL” value was found to be 43.1%.
B4: the “rate of phagocytosis, antibody 1 µg/mL” value turned out to be 47.2% and the “rate of phagocytosis, antibody 10 µg/mL” value worked out at 55.2%.
Taken in the same sequence, the figures for B5 were 50.5% and 58.5%.
Turning to B6, the “rate of phagocytosis, antibody 1 µg/mL” value was determined as 47.1% and the “rate of phagocytosis, antibody 10 µg/mL” value amounted to 29.6%.
Taken in the same sequence, the figures for B7 were 44.2% and 34.7%.
As for B8, the “rate of phagocytosis, antibody 1 µg/mL” value was found to be 55.5% and the “rate of phagocytosis, antibody 10 µg/mL” value was determined as 38.9%.
As for B9, the “rate of phagocytosis, antibody 1 µg/mL” value amounted to 49.3% and the “rate of phagocytosis, antibody 10 µg/mL” value turned out to be 44.2%.
In the same order, the values of B10 are 47.6% and 60.9%.
For the molecule B1, the “rate of phagocytosis, antibody 1 µg/mL” value was 5.1% and the “rate of phagocytosis, antibody 10 µg/mL” value worked out at 17.8%.
In the same order, the values of B2 are 3.02% and 2.03%.
Consider B11, for which the “rate of phagocytosis, antibody 1 µg/mL” value turned out to be 71.5% and the “rate of phagocytosis, antibody 10 µg/mL” value is 74.9%.
Consider B12, for which the “rate of phagocytosis, antibody 1 µg/mL” value was found to be 81.7% and the “rate of phagocytosis, antibody 10 µg/mL” value was 81.7%.

In a further test the target is T2, human CD47 protein, His Tag (ACRObiosystems, Cat. No. CD7-H5227) (human, UniProt Q08722 19-139).
T2 construct: bought reagent; also called CD47-His; hCD47-His Tag; not shown: His tag
As to the kind of experiment: ELISA, plate coated with CD47-His.
With B3, the concentration for a half-maximal effect (EC50) (commonly the midpoint of the concentration-response curve) was found to be 0.07 µg/mL.
B4 had an EC50 of 0.0809 µg/mL.
The molecule B5 registered an EC50 of 0.0993 µg/mL.
B6 gave an EC50 of 0.106 µg/mL.
The molecule B7 registered an EC50 of 0.106 µg/mL.
Consider B8, for which the EC50 was 0.125 µg/mL.
B9 had an EC50 of 0.129 µg/mL.
B10 yielded a concentration for a half-maximal effect (EC50) of 0.0563 µg/mL.
With B1, the EC50 stood at 0.16 µg/mL.
For B2, the EC50 was found to be 0.215 µg/mL.
B11 returned a half-maximal effective concentration (EC50) of 0.157 µg/mL.
Consider B12, for which a half-maximal effect (EC50) was put at 0.339 µg/mL.

A further test addresses T2, human CD47 protein, His Tag …. As to the kind of experiment: Biacore SPR, 25 C, antibody captured on CM5 chip. On the technique in general: Surface plasmon resonance follows binding to a sensor surface in real time, without labels.
As for B3, binding was put at a Kd of 0.946 nM.
Turning to B4, the Kd (commonly the constant that tells how readily two partners part at equilibrium) came to 0.836 nM.
The molecule B5 displayed a dissociation constant Kd of 0.96 nM.
B6 displayed an equilibrium dissociation constant (Kd) of 0.896 nM.
As for B7, the equilibrium dissociation constant (Kd) was found to be 0.779 nM.
B8 gave a Kd of 0.904 nM.
The molecule B9 registered a dissociation constant (Kd) of 0.765 nM.
B10 returned a Kd of 0.592 nM.
Regarding B1, the Kd stood at 9.31 nM.
In turn, B2 had an equilibrium dissociation constant (Kd) of 17.1 nM.
On the same count and under the same terms, in the case of B11 it was 0.204 nM.
The molecule B12 displayed a Kd of 8.55 nM.

For a further test, the target named is T3, cynomolgus/rhesus macaque CD47 protein, His Tag (ACRObiosystems, Cat. No. CD7-C52H1) (cynomolgus monkey (cynomolgus/rhesus …, UniProt A0A2K5X523 19-141)).
T3 construct: bought reagent; also called Cynomolgus monkey CD47 protein
T3 sequence (A0A2K5X523 entry or part of it limits assumed): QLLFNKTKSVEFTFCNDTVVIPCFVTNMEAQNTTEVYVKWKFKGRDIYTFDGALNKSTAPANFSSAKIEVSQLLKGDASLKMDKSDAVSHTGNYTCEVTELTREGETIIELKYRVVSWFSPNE
As to the kind of experiment: Biacore SPR, 25 C, antibody captured on CM5 chip.
B3 yielded a Kd of 1.31 nM.
B4 had a Kd of 1.17 nM.
Same read-out and setting: in the case of B5 it was 1.3 nM.
For B6, the equilibrium dissociation constant (Kd) stood at 1.4 nM.
B7 showed a dissociation constant (Kd) of 1.14 nM.
B8: the affinity, expressed as Kd, was 1.33 nM.
The molecule B9 came in with an equilibrium dissociation constant (Kd) of 1.15 nM.
As to B10, binding was characterised by a dissociation constant (Kd) of 2.47 nM.
In turn, B1 gave a dissociation constant (Kd) of 2.26 nM.
Still for that read-out and setting: the figure for B2 is 3.1 nM; for B11 it is 3.07 nM; for B12 it is 2 nM.

The next test addresses T1, CD47 on the red cell surface. As to the kind of experiment: flow cytometry on fixed red cells, antibody 1 µg/mL.
Procedure: (§1) Anticoagulated blood was collected and well mixed with an equal amount of normal saline. The mixture was centrifuged at 2000 rpm/min for 5 min, and the supernatant was removed. […] In the first two washings, the mixture was centrifuged at 2000 rpm/min for 5 min, and in the last washing, the mixture was centrifuged at 2000 rpm/min for 10 min, and the supernatant was removed.
The molecule B3 yielded an MFI of 4450 MFI.
B4: the MFI was 8450 MFI.
On the same count and under the same terms, the figure for B5 is 7400 MFI; for B6 it is 5130 MFI; for B7 it is 5610 MFI.
B8: the MFI is 6250 MFI.
As to B9, the MFI turned out to be 3440 MFI.
In the case of B10, the MFI is 7580 MFI.
Take B1: the MFI came to 913 MFI.
The molecule B2 gave an MFI of 860 MFI.
Consider B11, for which the MFI was found to be 2510 MFI.
On to B12, for which the MFI was 5240 MFI.

For the next test the target is unchanged. As to the kind of experiment: flow cytometry on fixed red cells, antibody 10 µg/mL. On the technique in general: In flow cytometry, cells or beads pass a laser one at a time.
Procedure: as §1
On to B3, for which the MFI was 50500 MFI.
As for B4, the MFI worked out at 53200 MFI.
In turn, B5 came in with an MFI of 50600 MFI.
The molecule B6 returned an MFI of 53300 MFI.
As for B7, the MFI worked out at 56100 MFI.
For B8, the MFI came out at 56700 MFI.
The molecule B9 showed an MFI of 55900 MFI.
The molecule B10 returned an MFI of 53000 MFI.
On the same count and under the same terms, the figure for B1 is 4730 MFI; for B2 it is 4200 MFI; for B11 it is 11000 MFI.
Still for that read-out and setting: in the case of B12 it was 15000 MFI.

The target of the next test is T4, human CD47 protein on CHO-K1-CD47 cells (human, UniProt Q08722 19-323).
T4 construct: whole, on cells; also called CHO-K1 cells expressing human CD47 protein
As to the kind of experiment: cell binding, CHO-K1-CD47 cells, high content imaging.
Procedure: A cell binding assay of anti-CD47 antibodies (chimeric or humanized) was performed based on the binding to a CHO-K1 cell line stably expressing CD47. CHO-K1-CD47 cells (CHO-K1 cells expressing human CD47 protein) were added to each well of a 96-well plate (Eppendorf, Cat. No. C030730.119) at 1.2×10⁴ cells per well and incubated with anti-CD47 antibodies (20 μg/mL, 1:4 dilution in PBS) at room temperature for 1-2 h. […] The cells were incubated at room temperature for 30 min. The cells were washed three times with PBS buffer. A nuclear dye Hoechst (Sigma, Cat. No. B2261) was diluted with PBS buffer at a dilution ratio of 1:500 and then added to each well at 100 μL/well for staining for 10 min. The cells were washed 3 times with PBS and analyzed using a high content screening system (manufacturer: PerkinElmer; model: Operetta).
The molecule B3 had an EC50 of 0.876 µg/mL.
As for B4, a half-maximal effect (EC50) was put at 1.07 µg/mL.
The same measure, in the same setting: the figure for B5 is 1.48 µg/mL.
In turn, B6 gave an EC50 of 1.26 µg/mL.
The molecule B7 returned a 50% effective concentration (EC50) of 1.12 µg/mL.
The same measure, in the same setting: the figure for B8 is 1.27 µg/mL.
Regarding B9, the 50% effective concentration (EC50) is 1.49 µg/mL.
On to B10, for which the EC50 was 1.18 µg/mL.
Take B11: a half-maximal effect (EC50) was put at 0.499 µg/mL.
On to B12, for which the 50% effective concentration (EC50) is 0.471 µg/mL.

The target in another test is T2, human CD47 protein, His Tag …. As to the kind of experiment: ELISA, CD47-His coated, competition with Human-SIRPα-mFc. A general note: In an ELISA, binding on a coated surface is turned into a signal by an enzyme label.
Procedure: The plate was let stand at 2-8° C. overnight. The wells were aspirated to remove the coating buffer and blocked with 100 μL/well of a blocking solution (PBS with 1% (w/v) bovine serum albumin (BSA, Sigma, Cat. No. B2064-100G)) by incubation at 37° C. for 1 h. The 96-well plate was washed with a washing buffer (PBS with 0.01% (w/v) Tween 20 (Sigma, Cat. No. P9416-100ML)). […] After the 96-well plate was washed with PBS washing buffer, anti-CD47 chimeric antibodies or anti-CD47 humanized antibodies (see Table 8 for chimeric antibodies, and see Table 9 for humanized antibodies) were added. 4-fold dilution was performed with PBS buffer from a starting concentration of 20 μg/mL, with 8 gradients obtained. The plate was incubated at room temperature for 1.5 h. […] After the 96-well plate was washed with PBS buffer, 100 μL/well of a substrate solution TMB (TIANGEN, Cat. No. PA107-01) was added, and the plate was incubated at room temperature for color development for 10 min. 100 μL/well of 1 M H₂SO₄ was added to stop the reaction. Colorimetric signals were generated and read at 450 nm using a multifunctional microplate reader (manufacturer: PerkinElmer; model: EnVision). Data were analyzed using GraphPad Prism5, and EC₅₀ was calculated.
For B3, the IC50 – broadly, the concentration that inhibits the measured activity by half – is 1.53 µg/mL.
With B4, the IC50 came to 1.61 µg/mL.
In turn, B5 displayed an IC50 of 1.7 µg/mL.
B6 registered a concentration for half-maximal inhibition (IC50) of 1.82 µg/mL.
As to B7, the IC50 is 1.73 µg/mL.
In the case of B8, the IC50 is 1.69 µg/mL.
Molecule B9 registered an IC50 of 1.84 µg/mL.
Take B10: the IC50 worked out at 1.77 µg/mL.
Regarding B1, the half-inhibitory concentration (IC50) is 2.94 µg/mL.
B2: the IC50 was found to be 2.05 µg/mL.
B11: the 50% inhibitory concentration (IC50) stood at 0.703 µg/mL.
B12 gave a 50% inhibitory concentration (IC50) of 0.621 µg/mL.
